Results: paper PMC3315643

How the values were obtained:
[1] = substrate: O=C1C=CC(=O)C(Cl)=C1; assay: purified protein; settings: pH 5.0; 30.0 °C
[2] = substrate: O=C1C=CC(=O)C=C1; assay: purified protein; settings: pH 4.0; 30.0 °C

B1: recPDH1 (recombinant pyranose dehydrogenase PDH1) (Macropsalliota meleagris) (protein)
chain: AITYQHPDDLPSGVDYDFIVAGGGTAGLVVASRLSENSNWKVLVIEAGPSNKDAFVTRVPGLASTLGAGSPIDWNYTTIPQDGLDGRSLDYPRAKILGGCSTHNGMVYTRGSKDDWNSWAGIIGDQGLGWDSILPAIKKAEKFTQDFTDQSVKGHIDPSVHGFDGKLSVSAAYSNISFNDLLFETTKELNAEFPFKLDMNDGKPIGLGWTQYTIDNHAERSSSATSYLESTGDNVHVLVNTLVTRVLSASGNGTDFRKVEFAVDANSPKKQLEAKKEVIVAGGVIASPQILMNSGIGERKVLQAVGIDTLIDNPSVGKNLSDQGATSVMFDTTLPSTDFDVDAALTEWTNSHTGPLARGARLNHLTFVRLPDDKLNGQDPSSGKNSPHIEFQFAQITPQVPTLGVPKQAPLPAANSYRLLLQLAVVNLYSISRGSISLSDNNPFTYPLIDLNMFKEDIDIAILREGIRSAGRMFSSKAFKNSVNKFVYPPADATSDEDLDAFLRSSTFSYVHGVGTLSMSPKGASWGVVNPDFKVKGTSGLRVVDASVIPHAPAAHTQLPVYAFAEYASALIAKSYN
[1]
  Km: 620 ± 110 µM
  kcat/Km: 20900 M⁻¹ s⁻¹
[2]
  Km: 1380 ± 280 µM
  kcat/Km: 54400 M⁻¹ s⁻¹
